B1: HMfA_(K31A E35A) (natural protein)
chain: not shown
B2: HMfA homodimer (Methanothermus fervidus histone HMfA) (natural protein)
chain: not shown
B3: HMfB_(D14A K30A E34A) (natural protein)
chain: not shown
B4: HMfB homodimer (Methanothermus fervidus histone HMfB) (natural protein)
chain: not shown

This data set concerns the molecule itself. Kind of data set: magnetic tweezers force spectroscopy.
B1 registered a stacking energy of 1.18 kBT.
B2 displayed a stacking energy of 1.81 kBT.
Then B3, with 1.07 kBT; and B4, with 3.44 kBT.

The values above are taken from article PMC8096283 (Nucleic Acids Research, 2020).
